First the molecules themselves.
B1: anti-EphB4 antibody clone YW30.35 (antibody, V domains shown)
VH: EVQLVESGGGLVQPGGSLRLSCAASGFTISGYYIHWVRQAPGKGLEWVGGIYPYSGSTDYADSVKGRFTISADTSKNTAYLQMNSLRAEDTAVYYCARGSGLRLGGLDYAMDYWGQGTLVTVSS
VL: DIQMTQSPSSLSASVGDRVTITCRASQDVSTAVAWYQQKPGKAPKLLIYSASFLYSGVPSRFSGSGSGTDFTLTISSLQPEDFATYYCQQSYTTPPTFGQGTKVEIK
B2: anti-EphB4 antibody clone YW30.35.1D2 (antibody, V domains shown)
VH: B1 VH with G99S
VL: DIQMTQSPSSLSASVGDRVTITCRASQDSEIFLAWYQQKPGKAPKLLIYSASNLESGVPSRFSGSGSGTDFTLTISSLQPEDFATYYCQQSNAVPLTFGQGTKVEIK
B3: anti-EphB4 antibody clone YW30.35.2D12 (antibody, V domains shown)
VH: B1 VH with P53L, T58R, D59G
VL: B1 VL with Q90K, Y92E, T94I, T97S
B4: anti-EphB4 antibody clone 30.35.2D13 (antibody, V domains shown)
VH: B1 VH with P53L
VL: B1 VL with S91T, Y92A, T93Q, P96E
B5: anti-EphB4 antibody clone YW30.35.2D8 (antibody, V domains shown)
VH: B1 VH with T28S, G31N, I34L, P53L, S55G, G56S, T58S, D59E
VL: B1 VL with Q90E, Y92T

Numbering of substitutions follows the chain as printed. Some results are limits rather than exact numbers.

The first experiment has as its target T1, human EphB4-His (human) (UniProt P54760).
T1 sequence (looked up): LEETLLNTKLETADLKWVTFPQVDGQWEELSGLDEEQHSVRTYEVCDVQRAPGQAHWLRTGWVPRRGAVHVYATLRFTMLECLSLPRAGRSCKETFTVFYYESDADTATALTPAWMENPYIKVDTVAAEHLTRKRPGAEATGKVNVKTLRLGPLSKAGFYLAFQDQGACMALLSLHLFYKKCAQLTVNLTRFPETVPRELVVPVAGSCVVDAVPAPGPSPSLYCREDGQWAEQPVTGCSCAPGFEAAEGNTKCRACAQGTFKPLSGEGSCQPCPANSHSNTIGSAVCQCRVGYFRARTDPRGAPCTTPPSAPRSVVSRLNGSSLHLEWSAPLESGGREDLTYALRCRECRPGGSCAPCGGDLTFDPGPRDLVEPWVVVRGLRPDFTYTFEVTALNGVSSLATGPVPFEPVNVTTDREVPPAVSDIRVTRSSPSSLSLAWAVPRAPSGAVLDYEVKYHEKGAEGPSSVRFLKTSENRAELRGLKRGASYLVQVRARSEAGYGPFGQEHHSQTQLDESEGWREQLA
Description: SPR, BIAcore-3000, antibody coupled to CM5 chip, EphB4-His injected, 25 C.
B1 returned a Kd of 32000 pM, a koff of 9.6e-05 s⁻¹ and a kon of 3000 M⁻¹ s⁻¹.
B2 had a dissociation constant Kd below 140 pM, a koff below 5e-06 s⁻¹ and an association rate constant (kon) of 36000 M⁻¹ s⁻¹.
For B3, the Kd was below 190 pM, the koff was below 5e-06 s⁻¹ and the kon worked out at 27000 M⁻¹ s⁻¹.
Consider B4, for which the Kd is below 110 pM, the koff was below 5e-06 s⁻¹ and the kon was determined as 45000 M⁻¹ s⁻¹.
For the molecule B5, the dissociation constant Kd was below 120 pM, the koff is below 5e-06 s⁻¹ and the kon worked out at 40000 M⁻¹ s⁻¹.

In a further experiment the target is murine EphB4-His (murine) (UniProt P54761). Described as above.
B1 showed a Kd of 2400 pM, a koff of 7.5e-05 s⁻¹ and a kon of 31000 M⁻¹ s⁻¹.
With B2, the Kd is below 40 pM, the koff was below 5e-06 s⁻¹ and the kon was 128000 M⁻¹ s⁻¹.
For B5, in that order: below 50 pM, below 5e-06 s⁻¹ and 92000 M⁻¹ s⁻¹.

These data come from patent US20100015135A1.
